{"source": "patent US7629132B2", "about": "“Goodpasture antigen binding protein” (priority 1999, dated 2009)", "key": {"rGPBP": {"target": "T1, rGPBP (Homo sapiens, UniProt Q9Y5P4)", "T1 construct": "made in house; host or cells: Pichia pastoris GS115", "T1 sequence (Q9Y5P4 1-624)": "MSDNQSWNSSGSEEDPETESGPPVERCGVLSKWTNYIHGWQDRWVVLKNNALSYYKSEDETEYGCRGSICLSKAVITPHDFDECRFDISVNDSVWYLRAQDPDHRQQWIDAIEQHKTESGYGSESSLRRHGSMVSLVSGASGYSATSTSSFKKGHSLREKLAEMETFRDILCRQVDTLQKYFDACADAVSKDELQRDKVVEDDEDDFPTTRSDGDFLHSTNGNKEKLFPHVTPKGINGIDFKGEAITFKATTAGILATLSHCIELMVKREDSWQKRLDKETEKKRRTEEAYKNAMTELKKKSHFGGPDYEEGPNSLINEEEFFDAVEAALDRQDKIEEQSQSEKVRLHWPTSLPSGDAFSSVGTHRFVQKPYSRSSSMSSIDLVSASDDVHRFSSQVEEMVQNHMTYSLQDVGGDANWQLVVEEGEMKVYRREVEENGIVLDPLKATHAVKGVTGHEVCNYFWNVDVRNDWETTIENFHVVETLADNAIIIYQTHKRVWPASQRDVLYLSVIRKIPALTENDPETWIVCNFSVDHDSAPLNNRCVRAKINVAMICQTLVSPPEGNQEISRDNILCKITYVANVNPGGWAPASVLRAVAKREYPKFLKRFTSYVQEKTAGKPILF", "test": "In vitro phosphorylation of GP antigen-derived peptides by rGPBP", "format": "biochemical", "conditions": "about 200 ng yeast rGPBP, 10 nmoles peptide, γ-32P-ATP", "protocol": "FIG. 5. Recombinant GPBP contains a serine/threonine kinase that specifically phosphorylates the N-terminal region of the human GP antigen. To assess phosphorylation, approximately 200 ng of yeast rGPBP was incubated with [γ]^32P-ATP in the absence (A and B) or presence of GP antigen-derived material (C). In (A), the mixture was subjected to reducing SDS-PAGE (10% gel) and autoradiographed. In (B), the mixture was subjected to ^32P-phosphoamino acid analysis by two-dimensional thin-layer chromatography. The dotted circles indicate the position of ninhydrin stained phosphoamino acids. In (C), the phosphorylation mixtures of the indicated GP-derived material were analyzed by SDS-PAGE (15% gel) and autoradiography (GPpep1 and GPpep1Ala^9) or immunoprecipitated with Mab 17, a monoclonal antibody that specifically recognize GP antigen from human and bovine origin, and analyzed by SDS-PAGE (12.5%) and autoradiography (rGP, GP). The relative positions of rGPBP (A), rGP antigen and the native human and bovine GP antigens (C) are indicated by arrows. The numbers and bars refer to molecular weight markers as in previous Figures. […]"}, "GPBP": {"target": "T2, GPBP (Homo sapiens, UniProt Q9Y5P4)", "T2 construct": "made in house; host or cells: Pichia pastoris GS115", "T2 sequence (Q9Y5P4 1-624)": "T1 sequence (Q9Y5P4 1-624)", "test": "In vitro GPBP autophosphorylation in the presence of GPΔIII-derived peptide", "format": "biochemical", "conditions": "about 200 ng rGPBP, 150 μM ATP, 5 nmol peptide", "protocol": "FIG. 20. Regulation of the GPBP by the C terminal region of GPΔIII. About 200 ng of rGPBP were in vitro phosphorylated with 150 μM ATP in the absence (lane 1) or in the presence of 5 nmol of GPΔIII-derived peptide synthesized either using Boc-(lane 2) or Fmoc-(lane 3) chemistry. The reaction mixtures were subjected to SDS-PAGE, transferred to PVDF and autoradiographed to asses autophosphorylation, and subsequently blotted with anti-FLAG monoclonal antibodies (Sigma) to determine the amount of recombinant material present (Western).\nIn vitro phosphorylation assays-About 200 ng of rGPBP were incubated overnight at 30° C. in 25 mM β-glycerolphosphate (pH 7.0), 0.5 mM EDTA, 0.5 mM EGTA, 8 mM MgCl2, 5 mM MnCl2, 1 mM DTT and 0.132 μM γ-^32P-ATP, in the presence or absence of 0.5-1 μg of protein substrates or 10 nmoles of synthetic peptides, in a total volume of 50 μl.\n(§1) Phosphorylation studies. Phosphorylation studies were essentially done as described above (see also 3 and 12). In some experiments, the substrates were in-blot renatured and then, phosphorylated for 30 min at room temperature by overlaying 100 μl of phosphorylation buffer containing 0.5 μg of rGPBP. Digestion with V8 endopeptidase and immunoprecipitation were performed as described in (3)."}, "[1]": {"test": "Loss of PKA-inducing activity of the peptide on storage", "format": "physicochemical", "conditions": "long storage at low temperatures"}, "PKA": {"target": "PKA (Homo sapiens, UniProt P17612)", "test": "PKA phosphorylation of native GP antigen (α3(IV)NC1 domain or hexamer) in the presence of C-terminal peptides", "format": "biochemical", "conditions": "0.1 μM ATP, 10 nmol peptide, purified α3(IV)NC1 domain or hexamer", "protocol": "FIG. 16. Phosphorylation of GP alternative splicing products by PKA. In left panel, equimolecular amounts of rGP (lanes 1), rGPΔV (lanes 2), rGPΔIII (lanes 3) or rGPΔIII/IV/V (lanes 4), equivalent to 500 ng of the GP were phosphorylated at the indicated ATP concentrations. One-fifth of the total phosphorylation reaction mixture was separated by gel electrophoresis and transferred to PVDF, autoradiographed (shown) and the proteins blotted with M3/1, a specific monoclonal antibody recognizing all four species (shown) or using antibodies specific for each individual C-terminal region (not shown). […] Right panel: purified α3(IV)NC1 domain or hexamer was phosphorylated with PKA and 0.1 μM ATP in the absence (lanes 1) or in the presence of 10 nmol of peptides representing the C-terminal region of either GPΔIII (lanes 2) or GPΔIII/IV/V (lanes 3). Where indicated the phosphorylation mixtures of purified α3(IV)NC1 domain were V8 digested and immunoprecipitated with antibodies specific for the N terminus of the human α3(IV)NC1 domain (3). Bars and numbers indicate the position and sizes (kDa) of the molecular weight markers.\nas §1"}}, "data": [{"sequence": "KGKRGDAGSPATWTTRGFVFT [GPpep1Ala^9, mutant Ser9 to Ala9 of GPpep1, residues 3-23 of the human GP antigen]", "values": [{"measurement": "32P incorporation by rGPBP, compared with GPpep1", "setting": "rGPBP", "result": "lower ^32P incorporation"}]}, {"sequence": "QRAHGQDLDALFVKVLRSP [Boc-based peptide]", "values": [{"measurement": "effect on GPBP autophosphorylation", "setting": "GPBP; listed as Boc-based synthetic peptides", "result": "positively influenced GPBP autophosphorylation"}, {"measurement": "stability of biological activity (ability to induce PKA) on storage", "setting": "[1]", "result": "loses its ability to induce PKA upon long storage at low temperatures"}]}, {"sequence": "QRAHGQDLDALFVKVLRSP [Fmoc-based peptide]", "values": [{"measurement": "effect on GPBP autophosphorylation", "setting": "GPBP", "result": "inhibited GPBP autophosphorylation"}, {"measurement": "induction of GP antigen phosphorylation by PKA", "setting": "PKA; listed as Fmoc-based peptides", "result": "not"}]}, {"sequence": "QRAHGQDLDALFVKVLRSP [GPΔIII derived peptide, synthetic peptide representing the C-terminal region of GPΔIII, chemistry not specified at the place]", "values": [{"measurement": "induction of GP antigen phosphorylation by PKA", "setting": "PKA; listed as SEQ ID NO: 43", "result": "induced the phosphorylation of a single polypeptide"}]}, {"sequence": "QRAHGQDLESLFHQL [GPΔIII/IV/V derived peptide, synthetic peptide representing the C-terminal region of GPΔIII/IV/V]", "values": [{"measurement": "induction of GP antigen phosphorylation by PKA", "setting": "PKA", "result": "induced the phosphorylation of a single polypeptide"}]}]}
